± gives the standard deviation of the averaged measurements.
Experiments:
Assay in all cases: protein stability index of tFT-peptide fusion (C-terminal peptide) (PSI (0-1 scale)); higher = more stable (slower turnover)
[1] = tested on: Saccharomyces cerevisiae; conditions: temperature: 30 C
Procedure: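 MPS profiling in S. cerevisiae of the yeast C-terminome library: the last 12 aa of each annotated ORF are fused to the C-terminus of a sfGFP-mCherry timer, after a GGGS linker. Cells are FACS-sorted into 8 mCherry/sfGFP bins and deep-sequenced. PSI runs from 0 (unstable) to 1 (stable); wild type and das1Δ backgrounds, two technical replicates each.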

[2] = tested on: Saccharomyces cerevisiae
Procedure: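 MPS profiling in S. cerevisiae of the tFT-X12 degron library: putative degron peptides plus stable controls, 12 aa, fused to the C-terminus of a sfGFP-mCherry timer. Cells are FACS-sorted into 8 mCherry/sfGFP bins and deep-sequenced. PSI runs from 0 (unstable) to 1 (stable). Backgrounds are wild type, das1Δ and doa10Δ at 30 °C, and wild type, das1Δ, cdc34-1 and cdc53-1 at 37 °C; 2-3 technical replicates each.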

[3] = tested on: Saccharomyces cerevisiae; conditions: genetic background: wild type; temperature: 30 C
[4] = genetic background: das1 deletion
[5] = genetic background: cdc34-1, temperature: 37 C
[6] = genetic background: cdc53-1, temperature: 37 C
[7] = genetic background: das1 deletion, temperature: 30 C
[8] = genetic background: das1 deletion, temperature: 37 C
[9] = genetic background: doa10 deletion, temperature: 30 C
[10] = genetic background: wild type, temperature: 30 C
[11] = genetic background: wild type, temperature: 37 C

Sequence | protein stability index [1, 4] | protein stability index ([1]; genetic background: wild type) | also measured
AATNNLFIFSAL [CDC55 C-terminal 12 aa] | 0.732 ± 0.0084 | 0.713 ± 0.073 | 
ACHMAKPLKLPT [YHR032C-A C-terminal 12 aa] | 0.679 ± 0.017 | 0.673 ± 0.029 | 
ACILMAISQFNS [KSH1 C-terminal 12 aa] | 0.619 ± 0.013 | 0.6333 ± 0.0061 | 
ADESKKEITTGR [MPC2 C-terminal 12 aa] | 0.714 ± 0.022 | 0.653 ± 0.018 | 
AEFFTKFDELVV [EHT1 C-terminal 12 aa] | 0.6616 ± 0.0027 | 0.666 ± 0.045 | 
AEKRDALLKEDA [RPL19A C-terminal 12 aa] | 0.6845 ± 0.0059 | 0.699 ± 0.0074 | 
AFIFGNYKDILT [RGA1 C-terminal 12 aa] | 0.755 ± 0.01 | 0.7204 ± 0.0034 | 
AHNFKVPETSKG [PAN2 C-terminal 12 aa] | 0.696 ± 0.032 | 0.677 ± 0.022 | 
AHQKEILHSVSN [YML6 C-terminal 12 aa] | 0.695 ± 0.016 | 0.726 ± 0.034 | 
AITLAWLAHALT [YHL037C C-terminal 12 aa] | 0.4375 ± 0.0012 | 0.39 ± 0.011 | 
AITSAQELLDSK [RBL2 C-terminal 12 aa] | 0.687 ± 0.024 | 0.72 ± 0.0079 | 
AKFFIPFSHSSP [YPL185W C-terminal 12 aa] | 0.729 ± 0.01 | 0.705 ± 0.051 | 
AKTKFCCCIPFK [YOR376W-A C-terminal 12 aa] | 0.7168 ± 0.0059 | 0.721 ± 0.078 | 
ALDAEKYLTSLE [TRR1 C-terminal 12 aa] | 0.707 ± 0.0079 | 0.695 ± 0.031 | 
ALDAERYLSAQE [TRR2 C-terminal 12 aa] | 0.698 ± 0.025 | 0.672 ± 0.015 | 
ALFKAAGGKIKK [YLF2 C-terminal 12 aa] | 0.6703 ± 0.0023 | 0.66 ± 0.011 | 
ALHLLTKFTHII [SBH2 C-terminal 12 aa] | 0.733 ± 0.012 | 0.167 ± 0.043 | 
ALKKAARQVKKE [IFA38 C-terminal 12 aa] | 0.71 ± 0.0074 | 0.6713 ± 0.0036 | 
ALNRSAIIKDDK [DDP1 C-terminal 12 aa] | 0.703 ± 0.0071 | 0.708 ± 0.01 | 
ALPLPDEDDADL [GSP1 C-terminal 12 aa] | 0.673 ± 0.02 | 0.715 ± 0.011 | 
ALSKVGIYTIAN [PAU10 C-terminal 12 aa] | 0.702 ± 0.013 | 0.675 ± 0.042 | 
ALWKEKKEKPRS [RPS23A C-terminal 12 aa] | 0.709 ± 0.01 | 0.687 ± 0.03 | 

Sequence | protein stability index [1, 4] | protein stability index ([1]; genetic background: wild type) | also measured
ANDWKTYENMKK [SIP18 C-terminal 12 aa] | 0.7042 ± 0.0029 | 0.706 ± 0.041 | 
ANEMADELSRYL [IRC6 C-terminal 12 aa] | 0.724 ± 0.019 | 0.7344 ± 0.0047 | 
ANFNDFYDAFYN [RSC30 C-terminal 12 aa] | 0.732 ± 0.019 | 0.707 ± 0.026 | 
ANGRHPQPSITL [CDC33 C-terminal 12 aa] | 0.71 ± 0.016 | 0.709 ± 0.0097 | 
APEFLDWLDEEN [HEM2 C-terminal 12 aa] | 0.738 ± 0.011 | 0.6793 ± 0.0033 | 
APNSNSSSGSVS [YFL013W-A C-terminal 12 aa] | 0.673 ± 0.026 | 0.66 ± 0.034 | 
AQGKLIMKVEGF [AST2 C-terminal 12 aa] | 0.698 ± 0.03 | 0.72 ± 0.024 | 
AQLLLTLNEETS [CAF40 C-terminal 12 aa] | 0.6844 ± 0.0028 | 0.695 ± 0.032 | 
AQPSQSEKEKTK [LNP1 C-terminal 12 aa] | 0.679 ± 0.015 | 0.678 ± 0.04 | 
ARGCCEVTSKRF [YGL188C C-terminal 12 aa] | 0.683 ± 0.011 | 0.676 ± 0.0099 | 
ARGRRRSKGFKV [RPL18A C-terminal 12 aa] | 0.722 ± 0.03 | 0.696 ± 0.016 | 
ARLDKSLTFEDQ [RIM20 C-terminal 12 aa] | 0.6983 ± 0.0055 | 0.699 ± 0.038 | 
ASDEPSRKKNRR [SSN3 C-terminal 12 aa] | 0.743 ± 0.044 | 0.704 ± 0.056 | 
ASSIYIIFDYEN [BUB3 C-terminal 12 aa] | 0.6561 ± 0.0041 | 0.637 ± 0.025 | 
ATFSHPELTNIH [SDH6 C-terminal 12 aa] | 0.716 ± 0.01 | 0.716 ± 0.024 | 
ATMALRKLVSRE [MSA2 C-terminal 12 aa] | 0.693 ± 0.025 | 0.705 ± 0.061 | 
ATRVSSRLRNKK [EAF7 C-terminal 12 aa] | 0.7311 ± 0.0026 | 0.701 ± 0.025 | 
ATYLNKSDNQVQ [YLR446W C-terminal 12 aa] | 0.675 ± 0.052 | 0.656 ± 0.024 | 
AVERLKLLKDYL [BNA3 C-terminal 12 aa] | 0.685 ± 0.013 | 0.73 ± 0.0074 | 
AYFALREKKFLL [YIL012W C-terminal 12 aa] | 0.694 ± 0.019 | 0.641 ± 0.018 | 
AYIDTSIPNLLL [REG2 C-terminal 12 aa] | 0.707 ± 0.022 | 0.7067 ± 0.0067 | 
AYRTYDISLTEN [DRN1 C-terminal 12 aa] | 0.694 ± 0.035 | 0.656 ± 0.012 | 

Sequence | protein stability index [1, 4] | protein stability index ([1]; genetic background: wild type) | also measured
CDEVVEHVKASA [PCM1 C-terminal 12 aa] | 0.708 ± 0.0093 | 0.687 ± 0.017 | 
CGGKRNLQRNNF [YLR149C-A C-terminal 12 aa] | 0.703 ± 0.017 | 0.6759 ± 0.0037 | 
CLGDSIVNLLLI [YGR259C C-terminal 12 aa] | 0.677 ± 0.011 | 0.3352 ± 0.0027 | 
CLREFMNGQRYI [DIA4 C-terminal 12 aa] | 0.7021 ± 0.0027 | 0.68 ± 0.034 | 
CLSIIGFLKTKV [YOR015W C-terminal 12 aa] | 0.7002 ± 0.0043 | 0.622 ± 0.023 | 
CMKAVILYSEQM [ATE1 C-terminal 12 aa] | 0.675 ± 0.012 | 0.6847 ± 0.0021 | 
CNVCLFPDMYAR [CTF19 C-terminal 12 aa] | 0.71 ± 0.01 | 0.727 ± 0.039 | 
CNYYYHPRITFA [RMT2 C-terminal 12 aa] | 0.6909 ± 0.0037 | 0.708 ± 0.039 | 
CPHHNPDNQQFF [BIK1 C-terminal 12 aa] | 0.702 ± 0.025 | 0.702 ± 0.078 | 
CTKHRFGYQNWI [ARP6 C-terminal 12 aa] | 0.692 ± 0.0049 | 0.692 ± 0.012 | 
CVKVQQFSVIVL [YDR193W C-terminal 12 aa] | 0.544 ± 0.013 | 0.617 ± 0.011 | 
DDFDMMEATQLS [MUD2 C-terminal 12 aa] | 0.70816 ± 0.00051 | 0.696 ± 0.0094 | 
DDNEKALTWEEL [ATG19 C-terminal 12 aa] | 0.706 ± 0.013 | 0.6976 ± 0.0069 | 
YIILLSRKCAFC |  |  | protein stability index [2, 5]: 0.573 ± 0.017; protein stability index [2, 6]: 0.65 ± 0.013; protein stability index [2, 7]: 0.51 ± 0.018; protein stability index [2, 8]: 0.645 ± 0.015; protein stability index [2, 9]: 0.401 ± 0.011; protein stability index [2, 10]: 0.396 ± 0.024; protein stability index [2, 11]: 0.586 ± 0.029; protein stability index [3]: 0.503 ± 0.017
YKLRAVFVCSVT |  |  | protein stability index [2, 5]: 0.575 ± 0.06; protein stability index [2, 6]: 0.6329 ± 0.0043; protein stability index [2, 7]: 0.507 ± 0.021; protein stability index [2, 8]: 0.6427 ± 0.0023; protein stability index [2, 9]: 0.311 ± 0.018; protein stability index [2, 10]: 0.34 ± 0.025; protein stability index [2, 11]: 0.445 ± 0.028; protein stability index [3]: 0.392 ± 0.037
YLYSSSPWILHG |  |  | protein stability index [2, 5]: 0.673 ± 0.011; protein stability index [2, 6]: 0.748 ± 0.035; protein stability index [2, 7]: 0.664 ± 0.015; protein stability index [2, 8]: 0.748 ± 0.033; protein stability index [2, 9]: 0.274 ± 0.027; protein stability index [2, 10]: 0.287 ± 0.044; protein stability index [2, 11]: 0.52 ± 0.023; protein stability index [3]: 0.383 ± 0.045
YTVRRVWLVRSR |  |  | protein stability index [2, 5]: 0.445 ± 0.0056; protein stability index [2, 6]: 0.521 ± 0.029; protein stability index [2, 7]: 0.344 ± 0.032; protein stability index [2, 8]: 0.5005 ± 0.0038; protein stability index [2, 9]: 0.312 ± 0.012; protein stability index [2, 10]: 0.325 ± 0.038; protein stability index [2, 11]: 0.4934 ± 0.0033; protein stability index [3]: 0.423 ± 0.0074
YVGILCTGILTV |  |  | protein stability index [2, 5]: 0.522 ± 0.024; protein stability index [2, 6]: 0.54 ± 0.045; protein stability index [2, 7]: 0.405 ± 0.026; protein stability index [2, 8]: 0.564 ± 0.0085; protein stability index [2, 9]: 0.38 ± 0.011; protein stability index [2, 10]: 0.41 ± 0.017; protein stability index [2, 11]: 0.549 ± 0.013; protein stability index [3]: 0.438 ± 0.0072
YVSSCLLWLCFV |  |  | protein stability index [2, 5]: 0.484 ± 0.043; protein stability index [2, 6]: 0.551 ± 0.018; protein stability index [2, 7]: 0.421 ± 0.023; protein stability index [2, 8]: 0.5591 ± 0.0006; protein stability index [2, 9]: 0.28 ± 0.0085; protein stability index [2, 10]: 0.287 ± 0.023; protein stability index [2, 11]: 0.457 ± 0.011; protein stability index [3]: 0.376 ± 0.034
YYVIFHLFSFLI |  |  | protein stability index [2, 5]: 0.427 ± 0.025; protein stability index [2, 6]: 0.478 ± 0.0057; protein stability index [2, 7]: 0.383 ± 0.033; protein stability index [2, 8]: 0.533 ± 0.048; protein stability index [2, 9]: 0.288 ± 0.0055; protein stability index [2, 10]: 0.293 ± 0.022; protein stability index [2, 11]: 0.493 ± 0.026; protein stability index [3]: 0.392 ± 0.094
